Test results reported in the supplement of paper PMC9112550, “Optimization of the antimicrobial peptide Bac7 by deep mutational scanning” (BMC Biology, 2022).

Tested on: Escherichia coli TOP10
Test: shrunken log2 fold change of peptide-encoding DNA abundance (4.5 h post-induction vs induction); higher = less antimicrobial activity (less host growth inhibition)
Details: time post-induction: 4.5 h; library: site-saturation at positions 5, 18, 19, 20
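Further: peptides expressed intracellularly from a pBAD plasmid library in pooled LB shake-flask culture, induced with 0.3% L-arabinose, DNA abundance read by NGS, three biological replicates, DESeq2 with apeglm shrinkage.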

RRIRARPPRLPRPRPRPYTKPRP and RRIRCRPPRLPRPRPRPIFLPRP are within 0.2 log units of each other in “shrunken log2 fold change” value: -0.156 for the first, -0.257 for the second.

Compared with RRIRQRPPRLPRPRPRPYKRPRP, RRIRVRPPRLPRPRPRPNPCPRP is lower in “shrunken log2 fold change” value: -0.213 for the first, -0.461 for the second.

Compared with RRIRVRPPRLPRPRPRPYRHPRP, RRIRHRPPRLPRPRPRPDWTPRP is higher in “shrunken log2 fold change” value: -1.08 for the first, -0.0689 for the second.

First: RRIRSRPPRLPRPRPRPCLIPRP
Second: RRIRPRPPRLPRPRPRPVNWPRP
The “shrunken log2 fold change” value of the first is lower: -0.197 for the first, 0.297 for the second.

RRIRSRPPRLPRPRPRPDGWPRP and RRIRDRPPRLPRPRPRPKRIPRP are within 0.2 log units of each other in “shrunken log2 fold change” value: 0.278 for the first, 0.133 for the second.

Going from RRIRNRPPRLPRPRPRPKVFPRP to RRIRRRPPRLPRPRPRPTCQPRP, the “shrunken log2 fold change” value rises from 0.0215 to 0.775.

First: RRIRSRPPRLPRPRPRPNNLPRP
Second: RRIRLRPPRLPRPRPRPMVTPRP
The “shrunken log2 fold change” value of the first is lower: -1.04 for the first, 0.0098 for the second.

Going from RRIRYRPPRLPRPRPRPGAMPRP to RRIRMRPPRLPRPRPRPMYVPRP, the “shrunken log2 fold change” value falls from 0.986 to 0.115.

Compared with RRIRCRPPRLPRPRPRPETAPRP, RRIRGRPPRLPRPRPRPYTSPRP is lower in “shrunken log2 fold change” value: 0.308 for the first, -0.278 for the second.

Compared with RRIRERPPRLPRPRPRPYNKPRP, RRIRGRPPRLPRPRPRPLQFPRP is higher in “shrunken log2 fold change” value: -1.11 for the first, 0.312 for the second.

RRIRSRPPRLPRPRPRPRPHPRP and RRIRQRPPRLPRPRPRPLQWPRP are within 0.2 log units of each other in “shrunken log2 fold change” value: 0.151 for the first, 0.123 for the second.

RRIRARPPRLPRPRPRPDDNPRP and RRIRGRPPRLPRPRPRPNKCPRP are within 0.2 log units of each other in “shrunken log2 fold change” value: 0.248 for the first, 0.139 for the second.

RRIRVRPPRLPRPRPRPWEKPRP and RRIRDRPPRLPRPRPRPSQIPRP are within 0.2 log units of each other in “shrunken log2 fold change” value: 0.0403 for the first, 0.016 for the second.

Going from RRIRNRPPRLPRPRPRPHCEPRP to RRIRGRPPRLPRPRPRPCTCPRP, the “shrunken log2 fold change” value rises from -0.778 to 0.111.

Going from RRIRDRPPRLPRPRPRPKPMPRP to RRIRMRPPRLPRPRPRPPFYPRP, the “shrunken log2 fold change” value falls from 0.135 to -0.182.

RRIRKRPPRLPRPRPRPDGPPRP and RRIRERPPRLPRPRPRPVTNPRP are within 0.2 log units of each other in “shrunken log2 fold change” value: 0.022 for the first, -0.0383 for the second.

Going from RRIRKRPPRLPRPRPRPSPEPRP to RRIRMRPPRLPRPRPRPAWQPRP, the “shrunken log2 fold change” value falls from 0.525 to 0.197.

Going from RRIRKRPPRLPRPRPRPEVEPRP to RRIRNRPPRLPRPRPRPKCRPRP, the “shrunken log2 fold change” value falls from 2.8 to 0.0642.

First: RRIRQRPPRLPRPRPRPRATPRP
Second: RRIRPRPPRLPRPRPRPWTVPRP
The “shrunken log2 fold change” value of the first is higher: 0.138 for the first, -0.155 for the second.

First: RRIRTRPPRLPRPRPRPWKDPRP
Second: RRIRRRPPRLPRPRPRPKPDPRP
The “shrunken log2 fold change” value of the first is lower: 0.0143 for the first, 0.493 for the second.

RRIRARPPRLPRPRPRPNQKPRP and RRIRFRPPRLPRPRPRPNIGPRP are within 0.2 log units of each other in “shrunken log2 fold change” value: 0.0427 for the first, -0.0107 for the second.

First: RRIRDRPPRLPRPRPRPLRQPRP
Second: RRIRMRPPRLPRPRPRPQGNPRP
The “shrunken log2 fold change” value of the first is higher: 0.565 for the first, -0.0324 for the second.

RRIRPRPPRLPRPRPRPPWIPRP and RRIRKRPPRLPRPRPRPKQDPRP are within 0.2 log units of each other in “shrunken log2 fold change” value: -0.0483 for the first, 0.119 for the second.

Going from RRIRWRPPRLPRPRPRPCYHPRP to RRIRVRPPRLPRPRPRPWYRPRP, the “shrunken log2 fold change” value falls from -0.123 to -0.39.

Going from RRIRCRPPRLPRPRPRPMCAPRP to RRIRNRPPRLPRPRPRPRFNPRP, the “shrunken log2 fold change” value falls from 0.0886 to -0.766.

First: RRIRHRPPRLPRPRPRPWHRPRP
Second: RRIRGRPPRLPRPRPRPTNGPRP
The “shrunken log2 fold change” value of the first is lower: -0.119 for the first, 0.254 for the second.

First: RRIRGRPPRLPRPRPRPALSPRP
Second: RRIRTRPPRLPRPRPRPNWKPRP
The “shrunken log2 fold change” value of the first is higher: 1.31 for the first, -0.0427 for the second.

RRIRWRPPRLPRPRPRPTHGPRP and RRIRRRPPRLPRPRPRPDGFPRP are within 0.2 log units of each other in “shrunken log2 fold change” value: -0.0242 for the first, 0.14 for the second.

First: RRIRCRPPRLPRPRPRPRLEPRP
Second: RRIRLRPPRLPRPRPRPTQCPRP
The “shrunken log2 fold change” value of the first is higher: 0.299 for the first, 0.0455 for the second.

RRIRHRPPRLPRPRPRPDQIPRP and RRIRNRPPRLPRPRPRPLDLPRP are within 0.2 log units of each other in “shrunken log2 fold change” value: -0.0166 for the first, 0.00897 for the second.

RRIRYRPPRLPRPRPRPQAYPRP and RRIRERPPRLPRPRPRPTEEPRP are within 0.2 log units of each other in “shrunken log2 fold change” value: -0.00884 for the first, 0.00212 for the second.

RRIRQRPPRLPRPRPRPCRWPRP and RRIRERPPRLPRPRPRPPDFPRP are within 0.2 log units of each other in “shrunken log2 fold change” value: -0.0062 for the first, 0.00276 for the second.

Going from RRIRERPPRLPRPRPRPYKRPRP to RRIRMRPPRLPRPRPRPKPTPRP, the “shrunken log2 fold change” value rises from -0.905 to 0.266.

First: RRIRRRPPRLPRPRPRPHFRPRP
Second: RRIRARPPRLPRPRPRPIYIPRP
The “shrunken log2 fold change” value of the first is lower: -0.0205 for the first, 2.43 for the second.

Going from RRIRHRPPRLPRPRPRPTQNPRP to RRIRVRPPRLPRPRPRPDSMPRP, the “shrunken log2 fold change” value falls from 0.666 to -0.103.

First: RRIRERPPRLPRPRPRPNWSPRP
Second: RRIRPRPPRLPRPRPRPKDAPRP
The “shrunken log2 fold change” value of the first is lower: -0.3 for the first, 0.164 for the second.

RRIRVRPPRLPRPRPRPISTPRP and RRIRHRPPRLPRPRPRPMEAPRP are within 0.2 log units of each other in “shrunken log2 fold change” value: -0.112 for the first, -0.0935 for the second.

First: RRIRTRPPRLPRPRPRPENMPRP
Second: RRIRQRPPRLPRPRPRPVDSPRP
The “shrunken log2 fold change” value of the first is lower: -0.468 for the first, 0.0997 for the second.

Going from RRIRQRPPRLPRPRPRPTMWPRP to RRIRIRPPRLPRPRPRPRTCPRP, the “shrunken log2 fold change” value falls from 0.16 to -0.282.

RRIRWRPPRLPRPRPRPFGLPRP and RRIRTRPPRLPRPRPRPDLKPRP are within 0.2 log units of each other in “shrunken log2 fold change” value: 0.0452 for the first, 0.156 for the second.

Going from RRIRLRPPRLPRPRPRPIGKPRP to RRIRTRPPRLPRPRPRPCKHPRP, the “shrunken log2 fold change” value rises from -0.335 to -0.0101.

RRIRARPPRLPRPRPRPWNKPRP and RRIRERPPRLPRPRPRPGYTPRP are within 0.2 log units of each other in “shrunken log2 fold change” value: -0.0945 for the first, 0.0628 for the second.

First: RRIRSRPPRLPRPRPRPPVVPRP
Second: RRIRIRPPRLPRPRPRPIITPRP
The “shrunken log2 fold change” value of the first is higher: 0.473 for the first, -0.625 for the second.

Compared with RRIRYRPPRLPRPRPRPPEIPRP, RRIRERPPRLPRPRPRPLAIPRP is lower in “shrunken log2 fold change” value: -0.0815 for the first, -0.56 for the second.

RRIRERPPRLPRPRPRPMALPRP and RRIRHRPPRLPRPRPRPLQDPRP are within 0.2 log units of each other in “shrunken log2 fold change” value: -0.0232 for the first, -0.0821 for the second.

Going from RRIRRRPPRLPRPRPRPNKIPRP to RRIRIRPPRLPRPRPRPFATPRP, the “shrunken log2 fold change” value falls from 0.755 to -0.0964.

RRIRDRPPRLPRPRPRPPCIPRP and RRIRPRPPRLPRPRPRPLMCPRP are within 0.2 log units of each other in “shrunken log2 fold change” value: -0.264 for the first, -0.122 for the second.

First: RRIRMRPPRLPRPRPRPVTAPRP
Second: RRIRCRPPRLPRPRPRPYFCPRP
The “shrunken log2 fold change” value of the first is higher: 0.57 for the first, -0.514 for the second.

Compared with RRIRLRPPRLPRPRPRPMGSPRP, RRIRERPPRLPRPRPRPQPTPRP is higher in “shrunken log2 fold change” value: -0.000911 for the first, 0.234 for the second.

RRIRVRPPRLPRPRPRPLVFPRP and RRIRLRPPRLPRPRPRPDVHPRP are within 0.2 log units of each other in “shrunken log2 fold change” value: -0.00523 for the first, -0.186 for the second.

First: RRIRCRPPRLPRPRPRPSTKPRP
Second: RRIRNRPPRLPRPRPRPMWVPRP
The “shrunken log2 fold change” value of the first is lower: -0.277 for the first, 0.0358 for the second.

Going from RRIRKRPPRLPRPRPRPQDTPRP to RRIRRRPPRLPRPRPRPWYYPRP, the “shrunken log2 fold change” value falls from -0.0445 to -0.293.

RRIRMRPPRLPRPRPRPFHMPRP and RRIRTRPPRLPRPRPRPPCMPRP are within 0.2 log units of each other in “shrunken log2 fold change” value: 0.105 for the first, 0.0978 for the second.

RRIRCRPPRLPRPRPRPACLPRP and RRIRDRPPRLPRPRPRPPHNPRP are within 0.2 log units of each other in “shrunken log2 fold change” value: -0.111 for the first, -0.103 for the second.

Compared with RRIRMRPPRLPRPRPRPMSIPRP, RRIRRRPPRLPRPRPRPCCRPRP is higher in “shrunken log2 fold change” value: -0.0109 for the first, 0.197 for the second.

Going from RRIRGRPPRLPRPRPRPMNLPRP to RRIRMRPPRLPRPRPRPPFAPRP, the “shrunken log2 fold change” value rises from 0.00442 to 1.07.

Going from RRIRRRPPRLPRPRPRPYKSPRP to RRIRIRPPRLPRPRPRPLHNPRP, the “shrunken log2 fold change” value falls from -0.239 to -0.563.

Going from RRIRGRPPRLPRPRPRPSGYPRP to RRIRSRPPRLPRPRPRPNMIPRP, the “shrunken log2 fold change” value falls from -0.167 to -0.429.

RRIRVRPPRLPRPRPRPLKVPRP and RRIRVRPPRLPRPRPRPQRFPRP are within 0.2 log units of each other in “shrunken log2 fold change” value: -0.136 for the first, -0.163 for the second.

Compared with RRIRDRPPRLPRPRPRPHFSPRP, RRIRPRPPRLPRPRPRPWMFPRP is lower in “shrunken log2 fold change” value: -0.0977 for the first, -0.306 for the second.

RRIRDRPPRLPRPRPRPIQTPRP and RRIRRRPPRLPRPRPRPGYIPRP are within 0.2 log units of each other in “shrunken log2 fold change” value: 0.00408 for the first, -0.177 for the second.

Compared with RRIRYRPPRLPRPRPRPQDYPRP, RRIRKRPPRLPRPRPRPTIKPRP is higher in “shrunken log2 fold change” value: -0.236 for the first, 0.104 for the second.

For RRIRSRPPRLPRPRPRPGSFPRP, the “shrunken log2 fold change” value was 0.209.
